Legend:
[1] = Cell lysate reaction of pMT enzymes with psi-ionone, irones quantified by HS-SPME-GCMS; format: biochemical; settings: for fold change in cis-α-irone produced: AUC vs non-mutated (=1)
In short: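 pMT1 site-saturation mutants were expressed in E. coli BL21(DE3) and lysed, and lysates were incubated 2 days at 28 °C with 0.2 mM SAM and 10 mg/L psi-ionone (plus caryophyllene) in 50 mM Tris pH 7, 10 mM MgCl2. Cis-α-irone was measured by HS-SPME-GCMS peak area and given as fold change over non-mutated enzyme.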

[2] = In vivo cis-α-irone production from glucose/glycerol in strain 2O31 cultures; format: cell-based, Escherichia coli; settings: pMT plasmid transformed into strain 2O31; 2 days
Source text: The advantage of in vivo biotransformation is that microbial cells can regenerate expensive co-factors rendering the scale-up bioprocess more cost-effective. […] Thus, pMT was incorporated into our psi-ionone producing microbe^7,8, to synthesize cis-α-irone from cheap renewable carbon sources (glucose/glycerol) (FIG. 4 and FIG. 19). To achieve high productivity, the psi-ionone production was first optimized by multidimensional heuristic process (MHP)^15, and strain 2O31 was identified to be the highest producer for psi-ionone (FIG. 19b). 2O31 was used as the base strain to probe cis-α-irone production in vivo (Table 5). Moreover, to improve the plasmid stability, auxotrophic strain was used with chemically defined media^1. The plasmid carrying pMT1, pMT7 or pMT10 was transformed into the strain 2O31, and produced less than 0.01, about 2 and about 3 mg/L cis-α-irone respectively in 2 days (FIG. 19d). To further optimize irone production with pMT10, three different culture conditions were tested: no methionine or dodecane added (control); 10 mM methionine added; 10 mM methionine and 20% dodecane added. In the control reaction, approximately 4.8 mg/L or 0.85 mg/L/OD cis-α-irone was produced after 3-day incubation (2O31-pMT10, FIGS. 4c and 4e). […] Lastly, when both methionine and dodecane were added, psi-ionone was accumulated in the organic layer and only ˜0.3 mg/L or ˜0.05 mg/L/OD cis-α-irone was produced (2O31-pMT10, FIGS. 4c, d and e). […] The limited methylation efficiency might be due to insufficient cofactor or SAH inhibition. […] In fact, the total amount of psi-ionone and cis-α-irone decreased (FIG. 4c, and d). As SAM biosynthesis is regulated by metJ in E. coli^16,17, the aforementioned six reactions were subsequently examined under metJ deleted genetic background (2O31, ΔmetJ). An increase in cis-α-irone titer to ˜5.7 mg/L was produced by 2O31 ΔmetJ-pMT10 strain with 10 mM methionine supplementation (FIG. 4c). An increase in specific cis-α-irone titer to ˜1.2 mg/L/OD was produced by 2O31 ΔmetJ-pMT10r strain without methionine supplementation (FIG. 4d). […]

B1: pMT1: wild-type bifunctional methyltransferase and cyclase TleD from Streptomyces blastmyceticus (protein, listed as Streptomyces blastmyceticus)
chain: MPQEARTPQQQVTADEVGDWYDKFGEVYHLTLGESVHCGLWFPPDAPVPQDMELVTMSSQAQDRYTDYLIETLDPKAGQHLLDIGCGTGRTALKAARQRGIAVTGVAVSKEQIAAANRLAAGHGLTERLTFEVADAMRLPYEDESFDCAWAIESLCHMDRAKALGEAWRVLKPGGDLLVLESVVTEELTEPETALFETLYAANVPPRLGEFFDIVSGAGFHTLSLKDLSANLAMTMNVFALGVYSRRAEFTERFGAEFVDGLLAGLGSAQETLIRKTRFFMATLRKPAV
[1]; cell extracts with psi-ionone
  cis-α-irone content (percentage of cis-α-irone in the irone mixture): 21%
  trans-α-irones detected (share of irones): 79%
[1]; pMT1_E153 mutants
  fold change in cis-α-irone produced: 1.0
[1]; pMT1_M236 mutants
  fold change in cis-α-irone produced: 1.0
[1]; pMT1_R160 mutants
  fold change in cis-α-irone produced: 1.0
[1]; pMT1_S182 mutants
  fold change in cis-α-irone produced: 1.0
[1]; pMT1_Y200 mutants
  fold change in cis-α-irone produced: 1.0
[2]
  cis-α-irone produced: less than 0.01 mg/L

Reference: US20240240209A1, “SYNTHESIS OF ENANTIOPURE CIS-A-IRONE FROM A RENEWABLE CARBON SOURCE” (Agency for Science, Technology and Research, priority 2021, published 2024)
